Assay [1] deals with BIR3 domain of XIAP (human, residues 253-347, N-terminal His tag) (human). Kind of assay: ITC. For orientation: Isothermal titration calorimetry measures the heat released or taken up as one component is titrated into another.
Assay [2] has the same target. Kind of assay: ITC, difference to N-Me-AVPF-NH2.
The target of assay [3] is recombinant BIR3 domain of cIAP1 with N-terminal 6xHis tag (Artificial Sequence). Kind of assay: DELFIA displacement of AVPI-Biotin.
The target in assay [4] is BIR3 domain of XIAP (human, residues 253-347, N-terminal His tag) (human). The assay can be described thus: DELFIA displacement of AVPI-Biotin.
For assay [5] the target is unchanged. The assay can be described thus: ITC, full curve titration.
In assay [6] the target is recombinant BIR3 domain of cIAP2 with N-terminal 6xHis tag (Artificial Sequence). The assay can be described thus: DELFIA displacement of AVPI-Biotin.
The target of assay [7] is BIR2 domain of XIAP (Artificial Sequence). Kind of assay: DELFIA displacement assay on XIAP BIR2.
In assay [8] the target is BIR3 domain of XIAP (human, residues 253-347, N-terminal His tag) (human). The assay can be described thus: DELFIA displacement, 2-h incubation.
The target in assay [9] is recombinant BIR3 domain of cIAP1 with N-terminal 6xHis tag (Artificial Sequence). The assay can be described thus: DELFIA displacement, 2-h incubation.
The target of assay [10] is recombinant BIR3 domain of cIAP2 with N-terminal 6xHis tag (Artificial Sequence). Kind of assay: DELFIA displacement, 2-h incubation.
The target in assay [11] is BIR3 domain of XIAP (human, residues 253-347, N-terminal His tag) (human). The assay can be described thus: DELFIA displacement of AVPI-Biotin. The source holds these as a separate data set.
Target sequence in this assay (chain, as listed by the source): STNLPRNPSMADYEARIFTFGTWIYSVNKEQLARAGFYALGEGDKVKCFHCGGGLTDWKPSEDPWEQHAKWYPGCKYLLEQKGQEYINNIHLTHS
Assay [12] deals with recombinant BIR3 domain of cIAP1 with N-terminal 6xHis tag (Artificial Sequence). The assay can be described thus: DELFIA displacement of AVPI-Biotin. This is another data set of the same source.
Target sequence in this assay (chain, as listed by the source limits assumed): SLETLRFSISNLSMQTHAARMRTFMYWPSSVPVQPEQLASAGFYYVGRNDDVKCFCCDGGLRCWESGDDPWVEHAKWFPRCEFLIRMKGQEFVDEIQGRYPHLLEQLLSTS
The target of assay [13] is recombinant BIR3 domain of cIAP2 with N-terminal 6xHis tag (Artificial Sequence). The assay can be described thus: DELFIA displacement of AVPI-Biotin. The source holds these as a separate data set.
Target sequence in this assay (chain, as listed by the source limits assumed): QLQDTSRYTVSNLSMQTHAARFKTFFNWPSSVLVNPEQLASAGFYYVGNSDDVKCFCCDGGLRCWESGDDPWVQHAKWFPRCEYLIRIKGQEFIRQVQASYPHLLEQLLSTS

Where no end group is shown, it is not given here. [ ]: non-standard residue; d: D form. NMeA = CN[C@@H](C)C(=O)O

Broadly, the Kd is the concentration at which binding is half-saturated. Low values mean a tighter complex, high ones a looser complex. The term IC50 denotes the concentration at which inhibition is half-maximal.

For the molecule “compound 8 (N-Me-Ala-P2-Pro-Phe-NH2, P2 = Cyclohexyl Glycine) (peptide)”, in [1], the -TΔS was -1.4 kcal/mol, the Kd turned out to be 354 nM and the ΔH was -7.8 kcal/mol. Besides, in assay [2], the δ(-TΔS) is -0.4 kcal/mol and the δ(ΔH) was determined as 0 kcal/mol.

For “compound 2 (N-Me-Ala-P2-Pro-Phe-NH2, P2 = (4SO3^-)-Phe) (peptide)”, in assay [2], the δ(-TΔS) came to 0 kcal/mol and the δ(ΔH) was -0.5 kcal/mol. Further, the IC50 in assay [3] is 144 nM.

In assay [1], “compound 10 (N-Me-Ala-P2-Pro-Phe-NH2, P2 = (2F-4CF3)Phe) (peptide)” displayed a -TΔS of -1.8 kcal/mol, a Kd of 194 nM and a ΔH of -7.4 kcal/mol. In assay [2], this molecule came in with a δ(-TΔS) of -0.8 kcal/mol and a δ(ΔH) of 0.4 kcal/mol.

MeHN-A-Dap(3-FSB)-P-F-NH2 (peptide) returned an IC50 in assay [4] of 47.3 nM.

In assay [1], “compound 6 (N-Me-Ala-P2-Pro-Phe-NH2, P2 = (3F-4CF3)Phe) (peptide)” showed a -TΔS of -1.2 kcal/mol, a Kd of 155 nM and a ΔH of -8.1 kcal/mol. Besides, in assay [2], the δ(-TΔS) was -0.2 kcal/mol and the δ(ΔH) was -0.3 kcal/mol.

In [1], “compound 5 (N-Me-Ala-P2-Pro-Phe-NH2, P2 = (3Cl-4CF3)Phe) (peptide)” had a -TΔS of -0.9 kcal/mol, a Kd of 190 nM and a ΔH of -8.3 kcal/mol. Further, in assay [2], the δ(-TΔS) was 0.1 kcal/mol and the δ(ΔH) is -0.5 kcal/mol.

In assay [1], “compound 7 (N-Me-Ala-P2-Pro-Phe-NH2, P2 = (3Cl-5CF3)Phe) (peptide)” gave a -TΔS of -1.3 kcal/mol, a Kd of 133 nM and a ΔH of -8 kcal/mol. In assay [2], this molecule yielded a δ(-TΔS) of -0.3 kcal/mol and a δ(ΔH) of -0.2 kcal/mol.

Turning to AVPI (peptide), in [1], the -TΔS was -4 kcal/mol, the Kd amounted to 825 nM and the ΔG is -8.3 kcal/mol. Moreover, the ΔH in assay [5] is -4.3 kcal/mol. For the same molecule, the IC50 in assay [4] came out at 957 nM. Also, the IC50 in assay [6] came out at 320 nM.

For NMe-Ala-pSFB-Dap-Pro-Phe-NH2 (peptide), in assay [7], the IC50 came out at 2220 nM.

In the case of MeNH-A-hF(OSO2F)-P-F-CONH2 (peptide), the concentration for half-maximal inhibition (IC50) in assay [8] came out at 197 nM; in assay [9], 26 nM; in assay [10] it was 188 nM.

For “N-Me-Ala-(p-phosphonomethyl)Phe-Pro-Phe-NH2 (peptide)”, in assay [2], the δ(-TΔS) is 4 kcal/mol and the δ(ΔH) was -4.4 kcal/mol. Moreover, the IC50 in assay [4] was determined as 35 nM.

Turning to MeHN-A-Dap(4-FSBz)-P-F-CONH2 (peptide), the figures for the IC50 in assay [8], in assay [9] and in assay [10] were 17.1 nM, 18.6 nM and 85.7 nM, respectively.

In assay [1], Ala-pTyr-Pro-(4F)Phe-NH2 (peptide) registered a -TΔS of 3.04 kcal/mol, a Kd of 205 nM and a ΔG of -9.13 kcal/mol. The ΔH in [5] was -12.2 kcal/mol. Also, the IC50 in [4] worked out at 40.1 nM. Besides, the IC50 in assay [3] was 124 nM. The IC50 in [6] is 143 nM.

Take “MeHN-A-Dap(p-OSO2F-Benzamide)-P-F-CONH2 (peptide)”: the IC50 in assay [9] was 335 nM; in [10], greater than 1000 nM.

In assay [1], “compound 13 (N-Me-Ala-P2-Pro-Phe-NH2, P2 = (p-guanidino)Phe) (peptide)” registered a -TΔS of -2.3 kcal/mol, a Kd of 182 nM and a ΔH of -6.9 kcal/mol. In assay [2], this molecule registered a δ(-TΔS) of -1.3 kcal/mol and a δ(ΔH) of 0.9 kcal/mol.

Turning to “compound 14 (N-Me-Ala-P2-Pro-Phe-NH2, P2 = (2F-4CF3-5Me)Phe) (peptide)”, in [1], the -TΔS is -3.3 kcal/mol, the Kd worked out at 81 nM and the ΔH is -6.4 kcal/mol. Besides, in assay [2], the δ(-TΔS) was -2.3 kcal/mol and the δ(ΔH) came out at 1.4 kcal/mol.

In [1], “compound 3 (N-Me-Ala-P2-Pro-Phe-NH2, P2 = (4-NO2)-Phe) (peptide)” came in with a -TΔS of -0.1 kcal/mol, a Kd of 280 nM and a ΔH of -8.9 kcal/mol. In addition, in assay [2], the δ(-TΔS) is 0.9 kcal/mol and the δ(ΔH) was -1.1 kcal/mol.

In assay [1], “compound 9 (N-Me-Ala-P2-Pro-Phe-NH2, P2 = Dab) (peptide)” showed a -TΔS of -1.4 kcal/mol, a Kd of 230 nM and a ΔH of -7.7 kcal/mol. Moreover, in assay [2], the δ(-TΔS) is -0.4 kcal/mol and the δ(ΔH) stood at 0.1 kcal/mol.

For the molecule MeNH-A-Dap(4-VSB)P-F-CONH2 (peptide), the IC50 in assay [8] came to 31 nM; in assay [9], 4.3 nM; in assay [10] it was 1.3 nM.

Regarding MeHN-A-F(OSO2F)-P-F-CONH2 (peptide), in assay [10], the IC50 turned out to be 343 nM.

For “compound 12 (N-Me-Ala-P2-Pro-Phe-NH2, P2 = (4-OCF3)Phe) (peptide)”, in assay [1], the -TΔS was -1.9 kcal/mol, the Kd came to 227 nM and the ΔH was -7.1 kcal/mol. Also, in [2], the δ(-TΔS) is -0.9 kcal/mol and the δ(ΔH) turned out to be 0.7 kcal/mol.

Consider “compound 11 (N-Me-Ala-P2-Pro-Phe-NH2, P2 = Phe(4-CF3)) (peptide)”, for which, in assay [1], the -TΔS was -1.9 kcal/mol, the Kd is 213 nM and the ΔH was -7.2 kcal/mol. In assay [2], this molecule showed a δ(-TΔS) of -0.9 kcal/mol and a δ(ΔH) of 0.6 kcal/mol.

As for [NMeA]VPF-NH2 [N-Me-AVPF-NH2], in assay [1], the -TΔS was -1 kcal/mol and the ΔH is -7.8 kcal/mol.

Turning to AVPF, the Kd in assay [1] turned out to be 175 nM. The same molecule returned a ΔH in [5] of -7.64 kcal/mol. Further, the IC50 in assay [11] came to 60 nM; in assay [12], 50.9 nM; in assay [13], 168 nM.
